The record followed here is a protein production outcome set (Wang et al. 2014).

The series is described as follows: label from the status in PepcDB records.

With “MPARPAYSRLQIALHWLVAILIAAAWLTHEGMGRALETRIETGASGFEGNTPHVWLGIAVFVAVLIRIVVRRVQGAPGPLPGATPLMEKAATWGHRLLYLLMVLTPALGALAWNAHSEAVGELHETVGSALMLVALGHALVALWHQYVKKDGSLTRITRPQG”, the protein production entry is “failed”. Under “MPCTPDTTSHPCFTEKAAQSCGRVHLPVAPKCNVLCGYCNRKYDCVNESRPGVTSGVLTPAQAADYLDRVLEREPAIRVAGIAGPGDPMANAAATLETLRLIRQRHPDMLFCLSSNGLGMPPHLDALAANGVTHATLTINAVDPDISARLYTWVRDGKVVWRGRPAAELMLERQLTALTGLVQRGIVVKVNTILVPGINDGHVEQVAEKVAALGATLMNIIPLHPTHDTPLAQVAEPSPEAVGEARRLAGAHIRQMTHCRRCRADAVGLLHHDRSRELAPLLRECAQKDDGAGARPFVAVATREGMLVNQHLGEATRLQIWGLGPARSGKGGTTTGGEAASGRNDAKGTGSGDVPGSTGGNSWGKAGATPWDSEEDKNDKRTDSTGSTGGDSGAVCGTTHGTTCGKDATRAGTDATDMPVPVLLEERATPRPGCGPERWHALADMLKDCRAVLTAACGESPRAILREHGITVTECAGIVEDVVGAVLAGLDVNAFRARKGGVSKGCCRGGGDGC” stands “failed”; under “MPDGWRKMGVLVFYDLPVVSPEQRLAAVRFHKFLLADGFERMHYSIYARYCGSMERAATYERRVEQALPAVGHVNLLKLTDRQMVGMRKWIRGNYRAPENAEFVPPAQYQLFLEHHHHHH”, “failed”; under “MPDIAVLVKASLNPDMARIGPDDSVDLNSIPLKISDIDRNAVEEAVKLKEKLGGKLYAVSVLTWGPVKLRNKDLRLAVQEALAKGVDEAIVVADDELTPGDQTTTAKAIKAALEKHGVKPELILAGEATIDEVTSQVPGRLASLLGYKYLSFVRKLDVDNGRIIAERDLEDYIEVVEASLPAVVSVTQEINEPRPPTLLQIRRAARKPVKEYSASELENVGKPVRRIVQIRGVQVKRKQQIIEGDNLEEIAEKLIEALAREGVLKL”, “failed”. Turning to “MPDINESMLNQFRPVIRRFIDPIADRIALPADYITLTGFLVACAASAGYASGSLITGAALLAASGFIDVLDGAVARRRFRPTAFGGFLDSTLDRLSDGIIIIGITAGGFTGLLTGLLALHSGLMVSYVRARAESLGIECAVGIAERAERIIIILAGSLAGYLIHPWFMDAAIIVLAALGYFTMIQRMIYVWQRLK”, the protein production result was “failed”. For “MPDKKREVSLSHRLQEVASFVPKGARLLDVGSDHAYLPIYLLEQGLIDFAVAGEIIKGPYESAVANVSESELSGQIAVRLADGLAALNDNDDIDLITICGMGGRLIADILAAGSDKLNSVKQLILQPNNCEDDLRSWLVANDFMIKAEKMVKDRHKYYEILVVEKGKITLSDKDLRFGPFLRQERSSIFKERWRKELAKLELALTKVPAKKKADNMFLSTKIEQIKEVLYES”, the protein production result is on record as “not failed”. As for “MPDSPLPLYHKVYLLLKQRLQSGGFALNAAMPGENALAAEYGVSRLTIRRSLEALESEGLIERRQGRGTFAAEGAILSAPQHSADIDTLMAHLARMGMHTQVNLLELDTVPATPQVAAQLELPAGAPVQRAVRVRSHQGLPFSYLVTYVPGEIGQRIRREDLGAKPLLAIFRDLGVRVARAQQSISAVLAEPGTAGALDVPVGSALLSLQRLVRDDAGRPVEWLHALYRPDRYEYRLDMQAHDTPGQPTWLPAGAPRRA”, the entry is “failed”; as for “MPDTPAEGYGNTLSSLALDHNWRTIYPLGAYQLSGLAWVDPQALWLRQLPRLPFCQATLGASFLALDRVRGFILLINGENDHSEILNPYDLEPFLDANGLCLYRETLWFCRDTWLYRCHLPDWHVEKMLECRYPIYGVAVDETGIYVACQKSGYIHCFDETGREQYRLSAPGIGCENLALKDGYLWVSDRLEQSIYCLDRHSGHVEWVALTPFAQPTAFTFDATGQLWVAYGGEEAYLRDNPNNREAPLEIDYRDICLIHPLLYHTHREQHYTLSNGYLIEMAYVEELSPLDALHLDNLEWRIALPANSPRQKLLRVEPVGTPFRLETVADQQVAVFDFPELRPYEARLFGWRAWLEVRGMKYHLSFDNIDETQPLPSEFAAQYLVDNDELAMDQPIVQEAAREAVGTETNILRKMLKIRNYVYDRLSYAMRPTIETPDVVLKRGTGSCGEYVGVLLALARLNGIACRTVGRYKCPPYPQKRGIPLQPTYNHVWLEFYVPGVGWVPMESNPDDVVERGPYPTRFFMALPWYHVEVGKGIRFETTNYRDRGVRLGDLALNHVRFTIHSELPPLLLEHHHHHH”, “failed”; as for “MPEHTPAPTPHRAVYGFAFYMLFTVLFLVYVTWALLPVEFGLHSYLPDKYFAVFVPFLVLVFAWFFAFLIYPAINLSMTVDVDSIASVVDPKLALPKGTEFTSWSQLQKGKVSQDSASKKASPVNCNLCRTFHQPVTRAPIPPLRFLDLQEVNTAYYN”, “failed”. For the sequence “MPEITLNCQKLPCPQPVLRCKALLDTEAPARCTVTVDNAPASENVARFLTSRGYDTSVHADPEGLWNIIAVRKDSAVAPSCDCEVMDARGIAAIAGTAEMPQKVTVFITSETLGSGDDVLGGKLMANFLATLPELGDELWRIVCVNGGVRLATREHPAVTHLNKLEAMGVDILVCGTCLDHFGLLSEKAVGQTTNMLDVVTSLQLATKVIRPLEHHHHHH”, the protein production result is “not failed”.

In the case of “MPEKKPVTAENSVGIDLGIEKFAILSDGIAVENPRFIKRVEKRIKKLQKQISRKKKGSKNYEKQKIRIQKKYRKLRNLRDDFHDKVSTAIAKRYDTIFIEDLNVRGMQRNHHLARSITDVSFYSFKEKLKWKADRYGKNLIEIGRFDPSSKLCSRCGNIKKDLKLSDRVYSCDACGLTIDRDYNASLDIRKIGLVKVGLVPPEFTPVEIATSGLDGIYPYRQMSVGESGRSEASAEELEHHHHHH”, the protein production entry is reported as “failed”. As for “MPESRTVALVTLGCARNEVDSEELAGRLEADGWKLVDDAEEADVAVVNTCGFVEAAKKDSVDALLEANDLKGHGRTQAVVAVGCMAERYGKELADALPEADGVLGFDDYADISDRLQTILNGGIHAAHTPRDRRKLLPISPAERQEAGAAVALPGHGPTDLPEGVAPASGPRAPLRRRLDGSPVASVKLASGCDRRCSFCAIPSFRGSFISRRPSDVLNETRWLAEQGVKEIMLVSENNTSYGKDLGDIRLLESLLPNLAEVDGIERVRVSYLQPAEMRPGLIDVLTSTEKVAPYFDLSFQHSAPNVLRAMRRFGDTDRFLELLDTIRSKAPEAGVRSNFIVGFPGESEADLAELERFLNHARLDAIGVFGYSDEEGTEAATYGDKLDEDVVAERLARVSRLAEELVSQRADERVGATVRVLVESVDPAGEGDGVRGRAEHQAPETDGQVLLTSGAGLSVGRMVDAKVVGTEGVDLVAEPLLGSPEWSEEAGRLEHHHHHH”, the entry is “failed”; as for “MPEYSSVTGLEGVKFAPLKKENGFYVATKIIDYPYAINAKVNTETSTEKQYADNKLVDMAVTTGSTKLELEMRDLPMEILEELFGIEETDGIYMFKKNVIAPWVAMSFYGPKANGKNRHVGLVKGRFSLPDDEWKTKEEKTDFQTVKLSAEFMEREQDNAYKVLADEDAPNFNLDKFYEKVFGNAYKNPLEHHHHHH”, “not failed”; as for “MPFGYGLSYGTDFSQEIVSTEQNEDSVTLKVHAANNGTKAGKDVVQVYYNPPYTDFDAKNSIEKSTVNLIAFEKTDDIQPGAAQDITVTVTKEDMASYSYAHENSDGTKGAYLLEQGDYALSINKTAHEEYQSVTVNVPQTIWYDNDNPRQSDKDGQAILDDQGDPTNEPANGDTFKAASNLFQDMTDHMSKTSQLTRANGALSNTATFPTKEEMADISAAFNAKTDDEGRLILQQMDLDTDTTLGNTAGSKVYTTEKPTSNADNGLTLSDLRGVDFNDTKWDQLLDQLEWPSRMPE”, “failed”. With “MPGAEQRWPARAALLLVLIAAAGLARGQETPSGPPPRVAMVVGNSAYQNVPALPNPAGDAELVAEKLWESGFEVIETVDADRETMLADLATFRSRLREGSEALFFYAGHGVQIGGRNYLLPVSVAPSSVEDLKAQAIDAQLFLDVMAQSGARLTLVLLDACRNNPFLDIPSDGAEAIATRALSIGASRAAVERGLRDLAAASRGGLAEMSAGRGEALISFATAPGQVAFDGRGRHSPYTSALAGSIDEPGLELVDLFRRVRGAVREATGGQQIAWTASTLESRFYFKPPADDLRSATTGMSTGSDTLGALPPRRVVDRTFWRAIRDTDRLDAFTAYVRTMPDGAFVAEAKEKIRSLGGDPEAIPVSDLSLPERPRGFVLADPAAQADLAATLDRAPASVPIGTGAARIGAAAGRAGWVHVAAAPRLGAVSAGGTRLEAGSVRWMEADQPLDYLPGIGSNGGLDSLRAEALREGGTTEPLEAAVETYVDACDMLAGNPYDSQRVTAGTRQFILDRNHDAAIAVCEIAVARHPEVVRFWAELARSYRAAGRYEEALHWQQKAVDAGYASAMVYLGQMFLDGQAVPQDFDRARELFEAADARGETAALTALAWIHRAGVGVPEDPARALDFYRQGAARGNDWAMTNIGEFYQKGLSVARDPAEAVRWYTAAAKSGELTAQTRLARMYQTGDGIAVDEAQARFWFETAAGRGVPNALTRLGLMYEQGQGVDRDLEAAARLYGRAAAEGDAEAWLRLGRLEASDAPLFDRPERALPLLEKALAAQVPGAARELGRLYETGRGVTKDLARARALYVQEAGANPWAARDAGRAFASDEGAPADPAQAARWYRAAAEGGVPWAALDLGRLYETGRGVPQDRTEALVLYAAAARPGGDARAADAARRAAAGYSAEETIRAAQLLLGRLGAEVGAPDGRIGPATRDALARVFAAQGRAAPGTRIDFDLLAELSAMDEERLP”, the protein production entry is recorded as “failed”.

“MPGELLGAHYGHCFGCGEEQSHGLHLAARAGQGVSITAEFTVQPAHQGAPGLAHGGVLATALDETLGSLNWLLRTIAVTGRLETDFVRPVPVGTVLYLEAEVTAVAGRKIYSTATGRIGGPEGPVAVRADALFVEVKVDHFTDNGRQEEIRAAMNDPDQLRRARAFEVNPLEHHHHHH”: the protein production result is on record as “failed”. Under “MPGFTAPTRRQVLSLYKEFIKNANQFNNYNFREYFLSKTRTTFRKNMNQQDPKVLMNLFKEAKNDLGVLKRQSVISQMYTFDRLVVEPLQGRKH” stands “failed”; under “MPGGRRRGFDDQVALQTAMELFWRQGYEGTSITDLTKALGINPPSLYAAFGSKRDLFEKTLDRYMCERTLQLEEAMVRPTAHEAVLDFLTGRVEVFTAPGQPFGCMTVQAGLASGEPHHEIVDLLTAAREQMRQTVLDRFEKALADGDLPAGTDCTALARYVMAAVYGLSVEAASGAPREELTAAAILAAQVVPRAQM”, “not failed”. As for “MPGKGEGSPVGIAILGYGTVGSQVLRLLTENHNDFQHRAGGPLEIKGVAASSVEKHRGSLADQLGLLTDDARSLIARDDVDIVVEVIGGIDYPRELILEALHSGKSVVTANKALVAAHSEELAAAADEAGVDLYFEAAVAAAIPVLGPLRRSLAGDQIQSVAGIVNGTTNFILDAMDSTGASYDDMLAEATRLGYAEADPTADVEGHDAASKAAILASLAFHTRVTYADVYCEGISKITADDINAAKEAGFTIKLLAICERLNVDGVEKVSARVHPTLVPRNHPLASVDKSFNAIFVEAEAAGRLMFYGNGAGGNPTASAVLGDIVGAARNKVFGGRAPGESTYADLPIAPFGEVPTRFHIDMEVEDRVGVLADLAKTFSNHGISLRTVRQAEKDGHARLIVVTHTAKESELEATVEQIKNSDSVKKINSVIRLAGLEHHHHHH”, the entry is “not failed”.
